What all share (type): cell-based
Design in all cases: key: — = no calcium flux seen at any dilution tested

For one experiment, the target named is T1, CCR5 (Homo sapiens, UniProt P51681).
T1 construct: host or cells: Ghost (3) cells (human osteosarcoma, CD4+)
The experiment is described as follows: gp120-induced calcium flux, Ghost (3) cells transfected with CCR5. The note with it: Ghost (3) CCR5 cells. The procedure: Calcium studies were done on HT-29 cells and Ghost (3) cells loaded with Fluo 4. The cells were placed in Locke's buffer containing 5 μg/ml Fluo 4 AM ester (Molecular Probes) for 20 to 30 minutes, then in Locke's buffer for an additional 30 minutes before testing. Various concentrations of gp120IIIB (X4 trophic), gp120CM235 (R5 trophic), gp120mN (X4 trophic), gp12093TH975 (nonsyncytium-inducing primary isolate from an asymptomatic subject, trophism undetermined but likely R5), and gp120SF2 (X4R5 trophic), ranging from 10 nM to less than 1 pM, were added in Locke's buffer.^6 The gp120 proteins were obtained from the AIDS Research Reagent Referral Program. Some HT-29 cells were given one of the following pretreatments: 50 μg/ml anti-Bob37 overnight, 1 μg/ml pertussis toxin overnight, or 4.6 μg/ml U73122 for one hour. With the HT-29 cells only, similar tests were also performed with SDF-1, MIP-1α, MIP-1β, and RANTES rather than gp120. The cells were visualized every 4 seconds in a confocal microscope, using 488 nm argon laser excitation and detection filters appropriate for fluorescein-like dyes.
(§1) Human osteosarcoma cell lines were transfected to express CD4, one or another of the HIV coreceptors, and a Green Fluorescent Protein reporter for active HIV infection, for the purpose of testing which of the known coreceptors was used to induce HIV infection by a given HIV strain (Morner A. J Virol 73:2343-9, 1999 and Deng K Nature 388:296-300, 1997). These cells were obtained from the AIDS Research and Reference Reagent Program, courtesy of Dr. Vineet KewalRamani and Dr. Dan Littman. These cells were grown in DMEM with 10% bovine calf serum supplemented with 0.5 mg/ml G418, 0.1 mg/ml hygromycin, and 1 microgram/ml puromycin, and were used at low passage number (less than 10). We have discovered that these cell lines are also activated by gp120 of certain viral strains, inducing a calcium flux in these cells.
Within 4 days of plating, coreceptor-transfected Ghost (3) cells (as well as the parent cell line not transfected to express any HIV coreceptors as a control) were put in Locke's medium, then treated with Fluo-4 (5 micrograms/ml for 30 minutes at 37° C.). After an additional 30 minute incubation in Locke's buffer at room temperature, the cells were examined in a confocal microscope while gp120 of various viral strains was added, and the cells were examined at 4 second intervals to look for a gp120-induced calcium flux. The results are given in the following table, expressed as the minimal concentration of gp120 resulting in a significant calcium flux. “−” means that no reproducible calcium flux was observed. “ND” means that the gp120 of that viral strain was not tested with the stated coreceptor. […]

The target of another experiment is T2, CCR1 (Homo sapiens, UniProt P32246).
T2 construct: host or cells: Ghost (3) cells (human osteosarcoma, CD4+)
T2 sequence (P32246 1-355): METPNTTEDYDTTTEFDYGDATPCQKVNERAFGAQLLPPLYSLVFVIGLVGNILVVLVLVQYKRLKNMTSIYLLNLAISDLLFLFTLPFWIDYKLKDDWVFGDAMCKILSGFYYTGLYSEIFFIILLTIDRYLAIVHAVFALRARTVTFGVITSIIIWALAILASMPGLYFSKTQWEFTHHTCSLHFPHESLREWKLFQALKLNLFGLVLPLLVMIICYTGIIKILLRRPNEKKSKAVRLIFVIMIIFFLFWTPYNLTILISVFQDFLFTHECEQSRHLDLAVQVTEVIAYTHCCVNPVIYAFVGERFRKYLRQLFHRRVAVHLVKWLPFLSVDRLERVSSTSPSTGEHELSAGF
The experiment is described as follows: gp120-induced calcium flux, Ghost (3) cells transfected with CCR1. The note with it: Ghost (3) CCR1 cells.
Excerpt: as §1
(§2) Within 4 days of plating, coreceptor-transfected Ghost (3) cells (as well as the parent cell line not transfected to express any HIV coreceptors as a control) were put in Locke's medium, then treated with Fluo-4 (5 micrograms/ml for 30 minutes at 37° C.). […] The results are given in the following table, expressed as the minimal concentration of gp120 resulting in a significant calcium flux. […]
On the technique in general: Calcium assays in cells follow changes in intracellular calcium, usually with a dye or a luminescent sensor.

A further experiment addresses T3, CCR2b (Homo sapiens, UniProt P41597).
T3 construct: host or cells: Ghost (3) cells (human osteosarcoma, CD4+)
T3 sequence (P41597 1-360 isoform P41597-2): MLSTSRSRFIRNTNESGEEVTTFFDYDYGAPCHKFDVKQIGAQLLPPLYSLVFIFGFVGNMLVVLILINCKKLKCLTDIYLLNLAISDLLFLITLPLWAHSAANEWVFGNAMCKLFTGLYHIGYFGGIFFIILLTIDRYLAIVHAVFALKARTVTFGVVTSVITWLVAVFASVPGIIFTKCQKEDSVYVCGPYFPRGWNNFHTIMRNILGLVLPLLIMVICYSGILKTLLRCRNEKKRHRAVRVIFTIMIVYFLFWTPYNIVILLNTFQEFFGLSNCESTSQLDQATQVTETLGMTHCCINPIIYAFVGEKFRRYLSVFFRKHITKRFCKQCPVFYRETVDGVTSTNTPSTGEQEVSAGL
Nature of the experiment: gp120-induced calcium flux, Ghost (3) cells transfected with CCR2b. The note with it: Ghost (3) CCR2b cells.
Excerpt: as §1, §2

A further experiment deals with T4, CCR3 (Homo sapiens, UniProt P51677).
T4 construct: host or cells: Ghost (3) cells (human osteosarcoma, CD4+)
T4 sequence (P51677 1-355): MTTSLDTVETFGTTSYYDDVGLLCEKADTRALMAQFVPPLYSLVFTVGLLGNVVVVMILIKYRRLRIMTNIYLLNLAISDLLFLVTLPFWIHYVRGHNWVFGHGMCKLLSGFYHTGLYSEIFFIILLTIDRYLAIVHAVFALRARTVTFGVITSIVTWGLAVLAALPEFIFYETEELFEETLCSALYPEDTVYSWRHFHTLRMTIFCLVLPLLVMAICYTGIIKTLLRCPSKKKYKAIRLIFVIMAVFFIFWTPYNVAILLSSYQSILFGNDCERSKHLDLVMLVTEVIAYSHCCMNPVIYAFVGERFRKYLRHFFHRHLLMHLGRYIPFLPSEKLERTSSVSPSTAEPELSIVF
Nature of the experiment: gp120-induced calcium flux, Ghost (3) cells transfected with CCR3. The conditions noted are these: Ghost (3) CCR3 cells.
Excerpt: as §1, §2

These results are taken from patent publication US20050042747A1, “Hivgp120-induced bob/gpr15 activation” (priority 2001, published 2005).

As for “gp120IIIB: HIV-1 envelope surface protein gp120 of strain IIIB (X4 trophic), from the AIDS Research Reagent Referral Program”, the “minimal concentration of gp120 resulting in a significant calcium flux” value with CCR5 was “about 1 nM”; with CCR5 (listed as IIIB) it was 250 nM; in the experiment with CCR1, “—”; in the experiment with CCR2b it was 250 nM; in the experiment with CCR3 it was “—”.
In the case of “gp120SF2: gp120 of HIV strain SF2 (X4R5 trophic)”, the “minimal concentration of gp120 resulting in a significant calcium flux” value in the experiment with CCR5, with CCR1, in the experiment with CCR2b and with CCR3 was “—” throughout.
